Positions count from the first letter of the chain named. Names may count otherwise.
Assays:
[1] = test system: amino acid at a terminal position of a polypeptide; settings: amino acid identity at a terminal position of a polypeptide; phospho-Y also at an internal position; cited from earlier work
[2] = target: fluorescently-labeled peptides with N-terminal phospho-tyrosine, tyrosine or phospho-serine (Homo sapiens, UniProt P06241, C239S/C240S/C246S/K204L/S186A/T181V); test: Single-molecule recognition of post-translationally modified amino acids by immobilized SH2 domain variant
[3] = test system: N-terminal amino acid of peptides; test: Single-molecule terminal amino acid discrimination by labeled affinity reagent (dwell time analysis); type: binding; settings: for Terminal amino acid recognition: single molecule traces, dwell time analysis
Protocol: An adaptor protein involved in proteolytic pathways was identified as a potential candidate for use as a labeled affinity reagent for detecting N-terminal aromatic residues. The adaptor protein, ClpS2 from an α-proteobacterium (A. tumefaciens), was expressed and labeled at an exposed cysteine residue. […] The exposed cysteine residue was labeled with a rhodamine dye (ATTO 532).
Peptides having different N-terminal aromatic residues were prepared to test whether the labeled ClpS2 was capable of N-terminal amino acid discrimination at the single molecule level.
FIG. 19C is a plot showing discriminant pulse durations (time duration of signal peaks) among the three N-terminal residues when reversibly bound by labeled ClpS2. FIG. 19D is a plot showing discriminant interpulse durations (time duration between signal pulses) among the three N-terminal residues. […] Mean pulse duration for the different N-terminal residues is visualized by histograms (A)-(B) and layered histogram (C).

[4] = test system: immobilized peptide FYPLPWPDDDY with N-terminal phenylalanine; test: Simultaneous single-molecule recognition with differentially labeled recognition molecules; type: binding; settings: 500 nM each binder
Protocol: Single peptide molecules containing N-terminal phenylalanine ([…] (SEQ ID NO: 79)) were immobilized in sample wells of a chip. Buffer containing 500 nM each of at ClpS1 (Agrobacterium tumefaciens ClpS1; sequence provided in Table 1) and at ClpS2-V1 (Agrobacterium tumefaciens ClpS2 variant 1; sequence provided in Table 1) was added, where at ClpS1 and at ClpS2-V1 were labeled with Cy3 and Cy3B, respectively. Since the intensity of Cy3B is higher than Cy3, at ClpS2-V1 binding events were readily distinguishable from at ClpS1 binding events.
The pulse duration distributions were distinct for each binder (FIG. 24B) and corresponded to their kinetic profiles as observed in single-binder experiments. Mean pulse duration was 1.3 seconds for at ClpS1 and 1.0 seconds for at ClpS2-V1 (FIG. 24C). Pulse rate was also distinct: 8.1 pulses/min for at ClpS1 and 14.1 pulses/min for at Clp2-V1 (FIG. 24C). Thus, when more than one recognition molecule is included for dynamic recognition of immobilized peptides, the binding characteristics of each recognition molecule (including pulse duration, interpulse duration, and pulse rate) can simultaneously provide information about peptide sequence.

B1: H. sapiens Fyn SH2 domain triple mutant superbinder: amino acid recognition protein, SEQ ID NO: 23 (protein, listed as Homo sapiens)
chain: MGAMDSIQAEEWYFGKLGRKDAERQLLSFGNPRGTFLIRESETVKGAYALSIRDWDDMKGDHVKHYLIRKLDNGGYYITTRAQFETLQQLVQHYSERAAGLSSRLVVPSHK
Binding Pref. [1]: phospho-Y | Peptide binding by the immobilized protein ([2]; peptide with N-terminal and penultimate unmodified tyrosines (YY)): not detected | Peptide binding by the immobilized protein ([2]; peptide with N-terminal phospho-serine): not detected | Peptide binding by the immobilized protein ([2]; peptide with N-terminal phospho-tyrosine): detected | Peptide binding by the immobilized protein ([2]; peptide with N-terminal unmodified tyrosine (Y)): not detected

B2: Plasmodium falciparum ClpS: amino acid recognition protein, SEQ ID NO: 15 (protein, listed as Plasmodium falciparum)
chain: MFKDLKPFFLCIILLLLLIYKCTHSYNIKNKNCPLNFMNSCVRINNVNKNTNISFPKELQKRPSLVYSQKNFNLEKIKKLRNVIKEIKKDNIKEADEHEKKEREKETSAWKVILYNDDIHNFTYVTDVIVKVVGQISKAKAHTITVEAHSTGQALILSTWKSKAEKYCQELQQNGLTVSIIHESQLKDKQKK
Binding Pref. [1]: F, W, Y, L,

B3: Agrobacterium tumifaciens ClpS1: amino acid recognition protein, SEQ ID NO: 4 (protein, listed as Agrobacterium tumifaciens)
chain: MIAEPICMQGEGDGEDGGTNRGTSVITRVKPKTKRPNLYRVLLLNDDYTPMEFVIHILERFFQKDREAATRIMLHVHQHGVGECGVFTYEVAETKVSQVMDFARQHQHPLQCVMEKK
Binding Pref. [1]: F, W, Y, L | Terminal amino acid recognition [3]: differentiable recognition of phenylalanine, leucine, tryptophan, and tyrosine | Mean pulse duration [4]: 1.3 s | Pulse rate [4]: 8.1 pulses/min

B4: Agrobacterium tumifaciens ClpS1 C7S: amino acid recognition protein, SEQ ID NO: 6 (protein, listed as Agrobacterium tumifaciens)
chain: B3 chain with C7S
Binding Pref. [1]: F, W, Y, L

B5: Agrobacterium tumifaciens ClpS1 C7S C84S C112S: amino acid recognition protein, SEQ ID NO: 7 (protein, listed as Agrobacterium tumifaciens)
chain: B3 chain with C7S, C84S, C112S
Binding Pref. [1]: F, W, Y, L

B6: Thermosynechococcus elongatus ClpS: amino acid recognition protein, SEQ ID NO: 12 (protein, listed as Thermosynechococcus elongatus)
chain: MPQERQQVTRKHYPNYKVIVLNDDFNTFQHVAACLMKYIPNMTSDRAWELTNQVHYEGQAIVWVGPQEQAELYHEQLLRAGLTMAPLEPE
Binding Pref. [1]: F, W, Y, L | Mean pulse duration ([3]; terminal leucine residue of polypeptides): 0.71 s

B7: Synechococcus elongatus ClpS2: amino acid recognition protein, SEQ ID NO: 11 (protein, listed as Synechococcus elongatus)
chain: MSPQPDESVLSILGVPRPCVKKRSRNDAFVLTVLTCSLQAIAAPATAPGTTTTRVRQPYPHFRVIVLDDDVNTFQHVAECLLKYIPGMTGDRAWDLTNQVHYEGAATVWSGPQEQAELYHEQLRREGLTMAPLEAA
Binding Pref. [1]: F, W, Y, L, and V, I | Terminal amino acid recognition [3]: leucine recognition

B8: Synechococcus elongatus ClpS1: amino acid recognition protein, SEQ ID NO: 10 (protein, listed as Synechococcus elongatus)
chain: MAVETIQKPETTTKRKIAPRYRVLLHNDDFNPMEYVVMVLMQTVPSLTQPQAVDIMMEAHTNGTGLVITCDIEPAEFYCEQLKSHGLSSSIEPDD
Binding Pref. [1]: F, W, Y

B9: GID4: GID4 evaluated as a potential reagent for proline recognition; species not stated at the place (protein, UniProt Q8IVV7 1-300, looked up)
Glucose-induced degradation …: MCARGQVGRGTQLRTGRPCSQVPGSRWRPERLLRRQRAGGRPSRPHPARARPGLSLPATLLGSRAAAAVPLPLPPALAPGDPAMPVRTECPPPAGASAASAASLIPPPPINTQQPGVATSLLYSGSKFRGHQKSKGNSYDVEVVLQHVDTGNSYLCGYLKIKGLTEEYPTLTTFFEGEIISKKHPFLTRKWDADEDVDRKHWGKFLAFYQYAKSFNSDDFDYEELKNGDYVFMRWKEQFLVPDHTIKDISGASFAGFYYICFQKSAASIEGYYYHRSSEWYQSLNLTHVPEHSAPIYEFR
Terminal amino acid recognition [3]: proline recognition

B10: Escherichia coli leucyl/phenylalanyl-tRNA-protein transferase: amino acid recognition protein, SEQ ID NO: 16 (protein, listed as Escherichia coli)
chain: MRLVQLSRHSIAFPSPEGALREPNGLLALGGDLSPARLLMAYQRGIFPWFSPGDPILWWSPDPRAVLWPESLHISRSMKRFHKRSPYRVTMNYAFGQVIEGCASDREEGTWITRGVVEAYHRLHELGHAHSIEVWREDELVGGMYGVAQGTLFCGESMFSRMENASKTALLVFCEEFIGHGGKLIDCQVLNDHTASLGACEIPRRDYLNYLNQMRLGRLPNNFWVPRCLFSPQELE
Binding Pref. [1]: K, R

B11: Saccharomyces cerevisiae UBR1: amino acid recognition protein, SEQ ID NO: 18 (protein, listed as Saccharomyces cerevisiae)
chain: MGSVHKHTGRNCGRKFKIGEPLYRCHECGCDDTCVLCIHCFNPKDHVNHHVCTDICTEFTSGICDCGDEEAWNSPLHCKAEEQ
Binding Pref. [1]: K, R, H

B12: Escherichia coli ClpS: amino acid recognition protein, SEQ ID NO: 13 (protein, listed as Escherichia coli)
chain: MGKTNDWLDFDQLAEEKVRDALKPPSMYKVILVNDDYTPMEFVIDVLQKFFSYDVERATQLMLAVHYQGKAICGVFTAEVAETKVAMVNKYARENEHPLLCTLEKA
Binding Pref. [1]: F, W, Y, L

B13: Escherichia coli ClpS M40A: amino acid recognition protein, SEQ ID NO: 14 (protein, listed as Escherichia coli)
chain: B12 chain with M40A
Binding Pref. [1]: F, W, Y, L
